For test [1], the system named is EGFR phosphorylation in PC3 cells. The experiment in a line: Western blot of EGFR / p-EGFR-Y1068. It counts as cell-based. The following applies: PC3 cells dosed 16 hours, p-EGFR-Y1068 by western blot. The procedure: We sought to ascertain a potential mechanism leading to decreased viability of cells upon exposure to H10 by examining cancer related pathways that have been linked with AGR2. […] We investigated the impact of H10 on EGFR phosphorylation as a possible mechanism of action. PC3 cells were dosed with H10 for 16 hours and the levels of EGFR and p-EGFR-Y1068 were analyzed by western blot (Figure 5C). […] Since amphiregulin is downstream of the HIPPO pathway, we also assessed the phosphorylation of the HIPPO effector, YAP1. We hypothesized that H10 may indirectly downregulate EGFR phosphorylation by altering activity of YAP1 (phosphorylation of YAP1 prevents […] translocation to the nucleus and transcription of amphiregulin [24]). Cell lysates from PC3 cells treated with H10 and the scrambled peptide were subject to immunoblot (Figure 5C).

A further test addresses T1, AGR2 (Homo sapiens, UniProt O95994).
T1 construct: histidine tag (N, cleaved yes); made in house; host or cells: E. coli BL21 de3
T1 sequence (O95994 with tags, fused parts or gaps): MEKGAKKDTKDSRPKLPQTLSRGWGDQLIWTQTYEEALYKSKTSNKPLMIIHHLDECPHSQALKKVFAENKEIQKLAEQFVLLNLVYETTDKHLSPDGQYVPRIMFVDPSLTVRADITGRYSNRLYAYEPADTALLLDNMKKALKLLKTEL
Kind of test: SPR competition, AGR2 binding to immobilized H10 in presence of free peptide. The note with it: peptide 500 nM co-/pre-incubated with AGR2 500 nM. The method, then:
SPR measurements were carried out on a Biacore T200 (GE) and data was analyzed using Biacore T200 Evaluation Software (version 1.0). Data was analyzed for a 1:1, two-stage and bivalent binding model. Average affinities were obtained from independent experimental repeats and errors are given as mean absolute deviations. Measurements were carried out at flow rates of 20 μL/min and confirmed experimentally to avoid mass transfer limitation. For direct binding studies of AGR2 to biotinylated H10-peptide a carboxymethyl-Dextran coated CM5 chip was coated with Streptavidin using standard amine coupling chemistry. Residual activated carboxyl groups were blocked with 1,2-Ethylenediamine. In contrast to conventional ethanolamine blocking, this procedure introduces positive charges to partially compensate the negative surface charge and reduce unspecific binding by AGR2. Biotinylated peptide was loaded and remaining free biotin sites were blocked by incubating the chip in biotin containing buffer over night to allow for biotinylated peptides to be used in competition assays. Optimal binding and minimal unspecific interaction was found for a running buffer consisting of Tris (100 mM, pH 7.5), NaCl (150 mM) and MgCl2 (10 mM).

A further test deals with MDA-MB-231 cells. The experiment in a line: Oris exclusion zone cell migration assay. Type of test: cell-based. The note with it: MDA-MB-231, 48 hours; H10 5 μmoles/L (10 μg/ml), taxol 5 nM, control peptide 10 μg/ml. The method, then: (§1) Cells were seeded into Oris™ 96-well plate with silicon stoppers in place (CMA1.101). Cell density was optimized for each cell type, PC-3 and MDA-MB-231 were seeded at 2.5×10^5 cells/mL or 6×10^4 cells/mL. Stoppers were removed 12 hours post seeding according to the manufacturer's protocol and treatments were added, Taxol (5 nM) (Selleckchem), H10 peptide (10 μg/ml), scrambled peptide (10 μg/ml), mouse anti-AGR2 antibody (1:50 of 2 μg/ml) (Santa Cruz Biotechnology), mouse-IgG (Santa Cruz Biotechnology), DMSO as control. After 48 hours, growth medium was aspirated and cells were fixed with 4% paraformaldehyde (Alfa Aesar) for 15 minutes at RT and washed with PBS. Cells were stained with Rhodamine phalloidin (Biotium) 1:40 and Hoechst (Invitrogen) 1:10,000 for 20 minutes at RT and washed with PBS.
(§2) Imaging was performed on a Zeiss Observer.Z1 microscope at 2.5x objective with AxioCam MRm camera and Axio Vision 4.8 software. Images were processed using ImageJ software package ( http://rsb.info.nih.gov/ij/) and following the cell migration method previously designed. The data was analyzed using GraphPad Prism 7.

For a further test, the system named is PC-3. Kind of test: Luminescent cytotoxicity (ATP viability, CellTiter-Glo) assay. It counts as cell-based. The note with it: PC-3, 48 hours, eight concentrations, 4PL fit, read-out: IC50, cell viability. The procedure: (§3) Cells were seeded into 96-well White with Clear Flat Bottom plates (Costar). Cell density was optimized for each cell type, PC-3 and MDA-MB-231 were seeded at 0.24×10^6 cells/mL or 0.06×10^6 cells/mL. After 12 hours, treatments were added, with the stock concentration for Taxol at 400 nM (Selleckchem), H10 peptide was 200 μg/mL and the control peptide was 200 μg/mL. We tested a total of eight concentrations using three-fold serial dilutions from the stock concentration. After 48 hours of treatment, we used the CellTiter-Glo Luminescent Cell Viability Assay (Promega) according to the manufacturer's protocol. The data was analyzed on Prism software using “log(inhibitor) vs. response” option. IC50 was calculated using the 4PL equation 1 as above.

The subject of the next test is MDA-MB-231. The description is as above. It counts as cell-based. The following applies: MDA-MB-231, 48 hours, eight concentrations, 4PL fit, read-out: IC50, cell viability. The procedure:
as §3

For another test, the system named is PC-3 cells. The experiment in a line: Oris exclusion zone cell migration assay. Type of test: cell-based. The note with it: PC-3, 48 hours; taxol 5 nM, H10 10 μg/ml, control peptide 10 μg/ml, AGR2 antibody; fluorescent microscopy of cell-free zone. The procedure: as §1, §2
Test [2] deals with T2, extracellular AGR2 (eAGR2) in spent media of cancer cell lines (human (endogenous in MCF-7 and 22Rv1), UniProt O95994 21-175).
T2 sequence (looked up): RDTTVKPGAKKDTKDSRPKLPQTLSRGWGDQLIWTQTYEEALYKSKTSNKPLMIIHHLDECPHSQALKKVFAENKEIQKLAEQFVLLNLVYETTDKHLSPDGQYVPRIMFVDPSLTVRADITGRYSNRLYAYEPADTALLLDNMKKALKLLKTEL
The experiment in a line: cell-based or functional assay.

The target in another test is T3, H10 peptide (biotin-…).
T3 chain: GGGSGMKMQVRIYLV
Kind of test: ELISA. The following applies: chain shown with the change, read off a plot.

Where [3] appears, read: AGR2 100 ng/ml, parent: est. 61.
Setting [4] is: AGR2 200 ng/ml, parent: est. 76.
Setting [5] is: AGR2 400 ng/ml, parent: est. 82.
[6] abbreviates: AGR2 600 ng/ml, parent: est. 83.
The mark [7] stands for this setting: AGR2 800 ng/ml, parent: est. 91.

No end group written: not given here. *: point of attachment. Biotin = O=C1N[C@H]2[C@H](CS[C@H]2CCCCC(=O)*)N1

In the case of GGGSG VMLKYMIQRV [scrambled peptide], the “concentration sufficient to downregulate EGFR phosphorylation” value in test [1] is over 20 µM.

With “Biotin-GSGSGSGSGSGSGSS [control peptide, biotinylated Gly/Ser control peptide, length 15]”, the “suppression of AGR2 binding to immobilized H10 by free peptide” value on AGR2 is “largely ineffective”. Moreover, the “inhibition of cell migration” value in the test with MDA-MB-231 cells is on record as “did not alter cell migration”. In addition, the half-inhibitory concentration (IC50) in the test with PC-3 and in the test on MDA-MB-231 was over 100 µM each time.

Turning to `CC(=O)O[C@H]1C(=O)[C@@]2(C)[C@H]([C@H](OC(=O)c3ccccc3)[C@]3(O)C[C@H](OC(=O)[C@H](O)[C@@H](NC(=O)c4ccccc4)c4ccccc4)C(C)=C1C3(C)C)[C@]1(OC(C)=O)CO[C@@H]1C[C@@H]2O` [taxol], the “inhibition of cell migration” value in the test on PC-3 cells is reported as “inhibits cell migration of PC-3 cells”.

As for Biotin-GGGSGMKMQVRIYLV [H10 peptide (biotin-GGGSGMKMQVRIYLV)], in test [2], the “ATP viability assay (CellTiter-Glo), MDA-MB-231 cells, 48 hours, IC50 of H10” value is 12 µM and the “ATP viability assay (CellTiter-Glo), PC-3 cells, 48 hours, IC50 of H10” value was 9 µM.

B1: Δ27 AGR2 (recombinant anterior gradient protein 2 without the ER leader sequence), O95994 E96K (protein)
chain: GAKKDTKDSRPKLPQTLSRGWGDQLIWTQTYEEALYKSKTSNKPLMIIHHLDECPHSQALKKVFAENKKIQKLAEQFVLLNLVYETTDKHLSPDGQYVPRIMFVDPSLTVRADITGRYSNRLYAYEPADTALLLDNMKKALKLLKTELGLNDIFEAQKIEWHE
As to B1, the response with H10 peptide (biotin-…) (setting [3]) was 30 % of binding; with H10 peptide (biotin-…) (setting [4]) it was 27 % of binding; in the test with H10 peptide (biotin-…) (setting [5]) it was 30 % of binding; in the test with H10 peptide (biotin-…) (setting [6]) it was 36 % of binding; in the test with H10 peptide (biotin-…) (setting [7]), 55 % of binding.

B2: Δ27 AGR2 (recombinant anterior gradient protein 2 without the ER leader sequence), O95994 E60Q (protein)
chain: GAKKDTKDSRPKLPQTLSRGWGDQLIWTQTYEQALYKSKTSNKPLMIIHHLDECPHSQALKKVFAENKEIQKLAEQFVLLNLVYETTDKHLSPDGQYVPRIMFVDPSLTVRADITGRYSNRLYAYEPADTALLLDNMKKALKLLKTELGLNDIFEAQKIEWHE
On to B2, for which the response in the test with H10 peptide (biotin-…) (setting [3]) is 42 % of binding; in the test with H10 peptide (biotin-…) (setting [4]), 42 % of binding; in the test with H10 peptide (biotin-…) (setting [5]), 46 % of binding; with H10 peptide (biotin-…) (setting [6]) it was 51 % of binding; with H10 peptide (biotin-…) (setting [7]), 57 % of binding.

As usually defined, the IC50 is the concentration that gives 50% inhibition.

For the origin of these results see PMC6007958, “Identification, characterization and application of a new peptide against anterior gradient homolog 2 (AGR2)” (Oncotarget, 2018).
